Test results published in the nanobody polyreactivity screen of Harvey et al. (2022).

test: yeast display, Sf9 membrane polyspecificity reagent, FACS + sequencing; frameworks hold sequencing errors
Procedure, shortened: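 Galactose induction of a Saccharomyces cerevisiae BJ5465 synthetic nanobody display library ran 36–48 hours. The cells were then stained for 1 hour at 4 °C with 10% biotinylated, detergent-solubilized Sf9 membrane reagent, pulled down on streptavidin microbeads and FACS-sorted into low and high (top ~1%) gates on expression and reagent-binding fluorescence. Labels for polyreactivity follow the gate of origin.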

Sequence | polyreactivity (PSR sort gate)
QDQHVESGGGLVQAGGSLRLSCAASGLTYRYNAMGWYRPAPGKERELVAAITSSGGSTYYADSVKGRFTISRDNAKNTVYLQMNSLKPEDTAVYYCAAATNTQESVPMYYWGQGTQVTVSS | low polyreactivity
QDQHVESGGGLVQAGGSLRLSCAASGSIFVTNAMGWCRQARGKERELVAAISVSGGSTYYADSVKGRFTISRDNAKHTVYLQMTSLKPEDTAVYYCNTVRSPPGHDSWGQGTQVTVSS | low polyreactivity
QDQHVESGGGLVQAGGSLRLSCAASGSTIVDYVMGWYRQAPGKERELVAAIRRSDGRTYYADSVKGRFTISRDNAKNTVYLQMNSLKPEDTAVYYCADYAFYRYFFPDVLYDYWGQGTQVTVSS | low polyreactivity
QDQHVESGGGLVQAGGSLRLSCAASGSTLYRYAMGWYRQAPGKERELVAAISSAGSTHYADSVKGRFTISRDNAKNTVYLQKNSLKPEDTAVYYCAKVVKKIEFDYWGQGTQVTVSS | high polyreactivity
QDQHVESGGGLVQAGGSLRLSCADSGIIFYPNAMGWYRQAPGKERELVAAITGSGGSTYYADSVKGRFTISRDNAKYTVYIQMNSLKPEDTAVYYCATRYHRSDPSRDYWGQGTQVTVSS | low polyreactivity
QDQHVESGGGLVQAGGSLRLSCDASGTTIYDYVMGWYRKAPGKERELVAAITRGGSTNYADSVKGRFTISRDNAKNTVYLQMNRLKPEDTAVYYCAARPCIWARAGYYWGQGTQVTVSS | high polyreactivity
QDQHVESGGGLVQAGGSLRLSFAASGRIFRYYAMRWYRQAPGKDRELVAAIRWTAGSTYYADSVKVRFTISRDNAKNTVYLQMNSLKPEDPAVYYCATDVWKYGRYEYWVQGTQVTVSS | low polyreactivity
QDQHVQSGVGIVQAVGSLRLSCAASGFTIPSYAMGWYRMAPGKEREFVAAISWNSGSTYYADSVKGRFTISRDNAKNTVYLQMNSLKPEDTAVYYCNAGAYVRRRYAPGYSFEYDSWGQGTQVTVSS | high polyreactivity
QDQIVESCGGLVQAGGSLRLSCASSGNIIYPKAMGWYRQAPGKERDLVAAISTSRGSTYYADSVKGRFTISRDNAKNTVYLQMNSLKPEDTAVYYCNRRGPYGYKAWAIGTIGDLDYWGQGTQVTVSS | low polyreactivity
QDQIVETGGGLVQAGCSLRLSCAASGSIYYNSMGWYRTAHAKETELVASISTGDSTDYADSVKGRFTISRDYAKYTVYLQMNSLKPEDTAVYYCKAVASQHDEFDYWGQGTQVTVSS | low polyreactivity
QDQLEESGGGLVQEGGSLRLSCAASGFTFRGYAMGWYRQAPGKERELVAAISYSGGSTYYADSVKGRFTISRDNAMNSVYLQMNSLKPEDTAVYFCAARGGGKVRHRGTYDYWGQGTQVTVSS | high polyreactivity
QDQLGESGGGLVQAGGSLRLSCAASGYIFGTYAMGWYRQATGKERELVAAISVGGGSTYYADSVKGRFTISRDNAKHTVYLQMNSLKPEDTAVYYCAAVQLYQKHQITYVAHEYWGQGTQVTVSS | low polyreactivity
QDQLLESGGGVFQAGGSLRLSCAASGVIFGSYALGWYRPAPGKERELVADITQSGGRTRYADSVKGRFTISRDNAKNTVYLQMNSLKPEDSAVYYCNAQDVDSGDDYDYWGQGTQVTLSS | low polyreactivity
QDQLQESGGGLVQAGGSLRLSCAASGSISYPRTMGWYRQAPGKEREFVAGIGVGGTTYYADSVKGRFTISRDNAKNTVYLQMKSLKPEDAAVYYCAVAAYYDKYYVYWGQGTQVTVSC | low polyreactivity
QDQLVDSGGGLDQAGGSLRLSCAASGGTFSSYDMGWYRQEPGKERELLADISWSGSSTDYADSVKGRYTISRDNAKNTVYLQLTSLKPEDTAVYYCAARPISFPYLGRNGYWGQGTQVTVSS | low polyreactivity
QDQLVDSGGGLVQAGGRLRLSCAASGSTYRTYAMVRYRQAPGKERELVAAINSGGSTYYADSVKGRFTISRDNAKNTVYLQMNSLKPEDTAVYSCAREDYVSYRLLYYLFDYWGQGTQVTVSS | low polyreactivity
QDQLVDSGGGLVQAGGSLRLSCAASGFTFFRKAMGWYREAPGKERQLVAAITRAGSTYYADSVKGRFTISRDNAKNTVYLQMNSLKAEDTEVYYCFDLSNRYAVRYDYWGQGTQVTVSS | high polyreactivity
QDQLVDSGGGLVQAGGSLRLSCAASGSIFTPNAMGWYRQAPGKERELVAAISWSGGGTYYADSVKGRFTISRDNAKNTVYLQMNSLKPEDTAVYYCNAEYTKTGALVIPYTYYYAEDYWGQGTQVTVSS | low polyreactivity
QDQLVDSGGGLVQAGGSLRLSCAASGSIFWTYAMGWYRQAPGKERELVATITYSDGNTYYADSVKGRFTISRDNAMNTVYLQMNSLKPEDTAVYYCNADGIYASISGYRYDYWGQGTQVTVSS | low polyreactivity
QDQLVESAGGLVQAGGSLRLICAASASIFYWNAMGWYRQAPGKERELVAAITSGGSTYYADSVKGRFTISRDNAKNTVYLQMNSMKPEDTAVYYCAARPRGTYSRLGYWGQGTQVTVSS | high polyreactivity
QDQLVESCGGLVQAGGSLRLSCAASGGIINGYTMGWYRQAPGKETDLVAAITGSGGSTYYADSVKGRYTISRDNAKNTVYLQMNSLKPEETAVYYCARDYHARPNCPRSDDYDYWGQGTQVTVSS | low polyreactivity
QDQLVESCGGLVQAGGSLRLSCASSGSTIYIYAMGWSRQAPVKERELVAAITWSGGSTYYADSVKGRFTISRDNAKNTVYLQMNSLNREDTAVYYFAAYLRYYRKEVGYSSMNYWGQGTQVTVSS | high polyreactivity

Sequence | polyreactivity (PSR sort gate)
QDQLVESGAGLVQAGGSLRLSCAASGITFSANAMGWYRQAPGKERELVATITWSGGSTYYADSVKGRFTISRDNAKNTVYLQMNSLKPEDTAVYFCNARSYDEYPYYSYNYWGQGTQVTVSS | low polyreactivity
QDQLVESGAGLVQAGGSLRLSCAASGRIFPGYAMGWYRQAPGKERELVAGITWRTARTYYADSVKGRFTISRDNAKNTVYLQMNSLKPEDTAVYYCAAKYARYGRHVIFDYWGQGTQVTVSS | high polyreactivity
QDQLVESGGALVQAGGSLRLSCAASGSIFDYNAMGWYRQAPRKDRELVAAISVNGGNTYYADSVKGRFTISRDNAKNTVYLQMNRLKPEDTGVSYCAADSYGGSNYDFWGQGTQVTVSS | low polyreactivity
QDQLVESGGCLVQAGGSLRLSCAASRFTFSPYTMGWYRQAPGKERELVATIRYDGTSTYYADSVKGRFTISRDNAKNTVYLQMNSLKPEDTAVYYCNADPGYYDYDYWGEGTQVTVSS | low polyreactivity
QDQLVESGGGIVQAGGSLRLICAASGRIFLRNDMGWYRQAPGKQRELVAGISSDGSTYYADSVKGRFTISRDNAKNTVYLQMNSLKPEDTAVYYCADERWGNPTDYQFWRQYDYWGQGTQVTVSS | low polyreactivity
QDQLVESGGGIVQAGGSLRLSCAASGRTFTAYAMGWYRQAPGKERELVAAISSSGGSTYYADSEKGRFTISRDNAKNTVYLQMNSLKPDDTAVYYCAALGGYRYGYDYWGQGTQVTVSS | high polyreactivity
QDQLVESGGGLDQAGGSLRLSCAASGGTFKVNAMGWYRQAPGKEREFVAAISSGGSTYYADSVKGRFTISRDNAKNTVYLQINSLKPEDTAVYYFAASGAYDEAYGEAFYYWGQGTQVIVSS | low polyreactivity
QDQLVESGGGLLQAGGSLRLSCAASGFTFSIYAMGWYRQAPGKERELVAAISSSSSTNYADSVKVRFTISRDNAKNTVYLQMNSLKPEDTEVYYCNADNVGNTFTWYDYWGQGTQVTVSS | low polyreactivity
QDQLVESGGGLLQAGGSLRLSCAASGIIFYPYAMGWYRQAPGKERELVAAITTRGRTYYADSVKGRFTISRDNAKNTVYLQLNSLKPEDTAVYYCNARRYFSRDSSGYNYWGQGTQVTVSS | high polyreactivity
QDQLVESGGGLRQAGGSLRLSCAASGPTFFVYAMGWYTQAPGKERELVAAISWNGGSTFYADSVKGRFTISRDNAKNTVYIQMNSLNPEDTAVYYCAAVESRGWGGYGYWGQGTQVTVSS | high polyreactivity
QDQLVESGGGLVHAGCSLRLSCAASGRTFYGNAMGWYRQAPGKERELVAGITRGGSTYYADSVKGRFTISRDNAKNNVYLQMNSLKPEDTAVYYCAATRYYSWGSRGGYWGQGTQVSVSS | high polyreactivity
QDQLVESGGGLVHAGGSLRLSCAASGSTFQYYVMGWYRQAPGKERELVAAITWSGGSTYYADSVKGRFTISRDNAKNTVYLQMNSLKPEDTAVYYCKAASGPDFEYEYWGEGTQVTVSS | low polyreactivity
QDQLVESGGGLVHAGGSLRLSCVPPDSSSLSMLWDGIDRRLGKKGSWLPELTSRGVGTYYADSVKGRFTISRDNAKNPVYLQMNSLKPEDTAVYYCNARYEVFYRYDYWGQGTQVTVSS | low polyreactivity
QDQLVESGGGLVLSGGRLRLSCAASGSNFSFYAMGWYRQAPGKERELVAGIRWRGGTSTFYADSVKWRFTISRDNAKNTVYLQMNSLKPEDTAVYYCAAKRRTGGNGYWGQGTQVTVSS | high polyreactivity
QDQLVESGGGLVQAGASLRLSCAASGFIFSYYAMGWYRQAPGKERELVAAITWSGSSTYYADSVKGRFTISRDNAKNTVYLQMNSLKPEDTAVYYCPASSGGFRHYYYTYNYWGQGTQVTVSS | high polyreactivity
QDQLVESGGGLVQAGCSLRLSCAASGLIFGWYAMGWYRQAPGKERELVASISRSGGSTYYADSVKGRFTISRDNAKNTVYLQMNSLITEDTAVYYCAALNYVFRLTYGYDYWGQGTQVTVSS | high polyreactivity
QDQLVESGGGLVQAGCSLRLSCAASGRTFTYYAMGWYRQAPGKERELVAALSKRGGTTYYADSVKVRFSMSRDNAKNTDYLKMNSLKAVDTAVYYCATEGNLRTAGYAYDHYYWGQGTQVTVSS | high polyreactivity
QDQLVESGGGLVQAGCSLRLTCAASGSTFSYYAMGWYRQAPGKERELVADISWSGGSTYYADSVKGRFTISRDNAKNTVYLQMNSLKAAHTAVYYCAARGGSVLRYGKYYYWGQGTQVTVSS | low polyreactivity
QDQLVESGGGLVQAGDSLRLSCAASGIILLSYAMGWYRQAPGKERELVAAITSGGGTNYADSVKGRFTISRDNAKNTVYLQMNSLKPEDTAVYYCAVGAYAGLYYYWGQGTQVTVSS | low polyreactivity
QDQLVESGGGLVQAGGIHRLICDSSGFIFWDNAMGCSRQAPGKEREFVAAISQRCTRTYYADSVKGRFTISRDNAKKTVFFPLNSLKPEDTGVYYCNRGGWRQFDSWGQGTQVTVSS | high polyreactivity
QDQLVESGGGLVQAGGILRLSCAASGRTFLPNAMGWYRQSPGKEREFVASINGDGTTYYADSVKGRFTISRDNAKNTVYLQMNSLKPEDTAVYYCAKDRDFSSPPTESGFDFWGQGTQVTVSS | low polyreactivity
